Reference: article PMC10514464 (iScience, 2023)
Where no end group is shown, it is not given here. The star is where a group is joined. FITC = O=C1OC2(c3ccc(O)cc3Oc3cc(O)ccc32)c2ccc(NC(=S)*)cc21

T1: FITC-labeled pepHePTP
T1 peptide: {FITC}-RLQERRGSNVALMLDV

B1: doubly-phosphorylated wild-type rat ERK2 oxidized with H2O2 (sulfenylated on C159) (enzyme)
chain: MAAAAAAGPEMVRGQVFDVGPRYTNLSYIGEGAYGMVCSAYDNLNKVRVAIKKISPFEHQTYCQRTLREIKILLRFRHENIIGINDIIRAPTIEQMKDVYIVQDLMETDLYKLLKTQHLSNDHICYFLYQILRGLKYIHSANVLHRDLKPSNLLLNTTCDLKICDFGLARVADPDHDHTGFLTEYVATRWYRAPEIMLNSKGYTKSIDIWSVGCILAEMLSNRPIFPGKHYLDQLNHILGILGSPSQEDLNCIINLKARNYLLSLPHKNKVPWNRLFPNADSKALDLLDKMLTFNPHKRIEVEQALAHPYLEQYYDPSDEPIAEAPFKFDMELDDLPKEKLKELIFEETARFQPGYRS

Tests used:
[1] = molecular target: B1; assay: SPR
[2] = molecular target: T1, FITC-labeled pepHePTP; assay: fluorescence polarisation

Kd [1] | fold increase in KD,app against untreated ERK2 [2] | Binder
58 µM |  | Ac-FQRKTLQRRNLKGLNLNL-NH2 [Lig-D peptide]
 | ~100 fold | B1
